Biological target: TDP-43 full length (residues 1-414) (Homo sapiens, UniProt Q13148 SEQ:1-414)
Assay: FP; at least 30-fold higher affinity than for U12 control; 40 mM HEPES, 0.5 M KCl, 0.4 M arginine, pH 7.4, 25 C
Conditions: tags: N-terminal 6xHis-SUMO, expressed in E. coli BL21(DE3) Star; label: 5' TYE fluorophore
Protocol: Equilibrium binding affinities of TDP-43 constructs for RNA were determined using fluorescence polarization. 5′TYETM fluorophore labeled RNA substrates, specific RNA (TYETM-[…]) (SEQ ID NO: 312) and RNA control (TYETM-[…]) (SEQ ID NO: 313) (integrated DNA Technologies), were incubated at a concentration of 5 nM for 30 min at 25° C. with TDP-43 (final concentrations 0 to 20 μM) in incubation buffer as indicated. Fluorescence polarization was measured with the plate reader fluorometer Envision (PerkinElmer) at each concentration of TDP-43 in a 96 well plate format with an excitation at 645 nm and emission at 665. Kds were calculated using the quadratic equation for tight binding (Morrison equation) using Sigmaplot (Systat Software Inc.). […] Stoichiometries were calculated by measuring the intercept of two straight lines, one fit using data points of the partially bound state, and the other using data points of the fully bound state.
The recombinant full-length TDP-43 was monomeric by sedimentation analysis (FIG. 8C) in buffer containing 400 mM arginine.

Chain of TDP-43 full length (residues 1-414) (Q13148 whole entry, the tested form may be a part): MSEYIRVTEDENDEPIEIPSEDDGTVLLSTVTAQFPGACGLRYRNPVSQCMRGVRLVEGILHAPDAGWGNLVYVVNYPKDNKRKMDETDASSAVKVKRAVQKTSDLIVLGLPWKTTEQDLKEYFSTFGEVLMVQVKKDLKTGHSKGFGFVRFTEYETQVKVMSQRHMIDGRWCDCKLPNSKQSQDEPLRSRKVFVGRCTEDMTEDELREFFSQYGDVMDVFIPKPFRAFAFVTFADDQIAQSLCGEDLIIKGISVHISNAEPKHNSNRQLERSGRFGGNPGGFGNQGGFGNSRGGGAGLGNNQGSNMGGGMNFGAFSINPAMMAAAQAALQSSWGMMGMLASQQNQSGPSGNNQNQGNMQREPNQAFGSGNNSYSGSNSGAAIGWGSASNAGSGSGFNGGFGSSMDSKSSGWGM

B1: (UG)6 specific RNA (ssRNA)
RNA: UGUGUGUGUGUG
- binding signal: ≥ 30 fold

Reference: patent publication US20140255304, “TDP-43 SPECIFIC BINDING MOLECULES” (BIOGEN IDEC INTERNALTIONAL NEUROSCIENCE GMBH, published 2014)
